The nature of this data set: label from the status in PepcDB records.

With “MLQKDPCLDDILENSEKLENNSNKKNIDSIDTIKLSDIIEKMIEINSIVRIEKIFEEKIVSQNPVVNVVVNDGSARGLLSLWSEQISLLNELNEGDAILIENAHAPKKYKDRIHLALSKSGKISKIESDLPTIDELLKKSSAQRNDFSRKSISELKEGIGAELRGLIVAIHSKEPYFPVCDKCNKKMTLKKGYAVCKCGNKVDEEDENLKWLFLCTCTLDDGSGTIRVTLNNNTNYLDLEELKKIIIDDEEILDVLNNKLLGLDILTSGFTIYDEYLKDTAFRCNNWNKIDIMEEFNKKLKGLEHHHHHH”, the protein production entry is recorded as “not failed”.

For “MLQLDHRHSIELHFAIPVSLPGCLSGAEVVADWPLDARSSGRQTSVSEAAGAGPVDRMNKEHYPFRMFLLGPFALVDAGGRSVAPKSKKAQALLAMLALSTRGSRSRIWLRDKLWSDRSDDQAAASLRQALLDIHKSLGPARDLLIADKNTVWLDTDRLLLDTDLMIRTERSPDQVTDELLEGIDIRDPEFEDWLALERQNWYRRLDEGQVHDVFEPRQQPSRDIAKHSALLPLTGAPDTSRTGKPVDIASSGPYGRRVGGDWQWMMALQSPIVVGAGEGGQIAATRFQNLIAKAIIDGLGFGVTDLSFTLPHIEENEQQISLPICLQLRLTFDGDMVLIELVMKHLINNRIHWLGSQAINRTQFERGEFGIAAALISQAVDQLAYFQEIQATDSRLSQDGLLIDAVNAIFRLSRDDLDNAERRLEEQIQYQPRSSTFAWLSFIRTFQVGQRFNALDAHLIEEAQAYARKALELDPQNSVSLALVGHVHSFLFGEYDYAANLFEKSIRLNPALPLGWDLYAMLHCYAGQPDKAVAMARWVQELGVYSPHKYYFDTTKCIAAALAGDHAAAITAGEEALRARPNFNSLLRYLASSHAHSNDLGSARHYLQRLEAVEGGFSINDFRGSGYPLLDTGGGQILIDGLLKAGAKLR”, the protein production result is on record as “failed”.

As to “MLQSKVFKYSRWDIACCLVIPFQISVYALLAYYYQSMSLLALLGMIPVLFALSLQNAGANHNHYHTPFFRIRWMNTLTRMGFSATEAPKTPYNIGHGIHHATHQSWNDKSILAVLGLKRSIAQQLISFGLFIFESLGVKYFTLLVLLKYWPIERVAVLASPEDPVLAARALKKLLEPAKLKAAKYDLAAWFLFRLVLCVVDWQFFFFYFIPVTYLIDTLRQGENYFQHWGATDPNDPKRDSVSCYSTLYNLLTFNLGYHQEHHYKPGLHWLKLPELTKELPSDRHTVPYSHYLNSPLMFPERASQLRKENVADVSP”, the protein production entry is listed as “failed”.

For the sequence “MLQTINKTLGKIMPLLTPLSVVSGVLLADYLNGLASLVPWIFAFMTFAGSLGANFQSLKTAVAHPLPMFLALFVLHIFMPVLAWSTGHLVFSGDSLTITGLTLGVVIPTGITSMIWAAMYKGNIGLTLSIILVDTILSPFIVPFSLSILAGAHVEMDVIGMMKGLVGMIVIPSLLGMLVNQFSTPERTVRLSANCAPFSKVGLAAVVAINSSVVAPYLKNVDLKFLTIAVTVFLVAFTGYLTAWLIGRLMKRPQEEIVALIFTGGMRNISAGAVLATSFFPPQVAVPVVIGMLFQQILAALFGHLLARSELKKAHHLDKKTSLPS”, the protein production entry is “failed”.

Consider “MLRKKHFSWMLVILILIAVLSFIKLPYYITKPGEATELASLIKVEGGYPEKGSLSLMTVKVGPANPFTYVWAKMHPYYEIVPDESIKEEGESDKEYMKRQLQMMKSSQENAVIAAYQKAGKKVSYSFNGIYASSVVENMPAKGKIEVGDKIISADGKNYQSAEKLIDYISSKKAGDKVTLKIEREEKEKRVTLTLKQFPDEPDRAGIGVSLYTDRNVKVEPDIDFEIENIGGPSAGLMMSLEIYNQLTKPDETKGYDIAGTGTIDVDGKVGPIGGIDQKVVAADKAGKDIFFAPNQNGASNSDYKNAVKTAKDIDSNMKIVPVDTMQDAIDYLNKLKAKQPDSQVLFLYI”, for which the protein production entry is on record as “failed”.

Consider “MLRLVKTRPSLRLGPSETAVIRVLDQERIDRINQDLTRAWKADVETTCVLSGILLLPCLILICLLDGPLFAKVILCTFLCLMVGGWCIAKWLNAQAQPRTDITGVKVEQLEGYFDRRWVRNGGKPYIEYSFGKHWLHIQTSACSFFSGDTQLKLNRRYRVDALYLTGHSSAYTGYYLLEETFKEIFDDSDLSAAEKIQIAEREKRINQDLEEQHKRLYRLYRNPQGELEAVAIGFNFAACFLTVLWSFCVSLYWVTGLTLAALGLILLIPDTGAGHPWFALGWLLSAGVFGACGNLWRERQVLSKGFVQVDALLSCNPDQAKVQYKRKVEEAAPGFGQ”, for which the protein production entry is “failed”.

For “MLRNNLGNSSDSKNEDGSVFSQTEHNIVATYLIMAGMISIISNIIVLGIFIKYKELRTPTNAIIINLAVTDIGVSSIGYPMSAASDLYGSWKFGYAGCQVYAGLNIFFGMASIGLLTVVAVDRYLTICLPDVGRRMTTNTYIGLILGAWINGLFWALMPIIGWASYAPDPTGATCTINWRKNDRSFVSYTMTVIAINFIVPLTVMFYCYYHVTLSIKHHTTSDCTESLNRDWSDQIDVTKMSVIMICMFLVAWSPYSIVCLWASFGDPKKIPPPMAIIAPLFAKSSTFYNPCIYVVANKKFRRAMLAMFKCQTHQTMPVTSILPMDVSQNPLASGRI”, the protein production result is on record as “failed”.

Turning to “MLRSCARRLRTLGALCQPPPVGRRLPGSEPQPALRSFSSEEVILKDYSVPNPSWNKDLRLLFDQFMKKCEDGSWKRLPSYKRTPTERIQDFKTHFLDPKLMKEEQVSQAQLFTRSFDDGLGFEYVMFYNDVEKRMVCLFQGVPYLEGPPGLIHGGAIATMIDATVGMCAMMAGGIVMTANLNISCKRPIPLCSVVRINSQLDKVEGKKFFVSSNVQSVDEKTLYSEATSLLIKLNPAKSLT”, the protein production entry was “failed”.

Regarding “MLRSLDIRDMLIIDRLSLAFQPGLNVLTGETGAGKSILLDSLGFVLGWRGRAELVRAGADKGEVTAVFDLPPGHAARAVLDEAGIEAEDELILRRVNFADGRKTAWVNDRRVSGEVLRGLSDRLVELHGQHDDRGLLNPRGHRQMLDTFAGLDLSACRRAWTALGTARRTLLAAEEALAAVRAEEDFLRHAVAELDKLDPQPGEEALLDTRRREMQGAEKIRDDIARAHRALSAEGAETLLVD”, the protein production entry is given as “failed”.

With “MLRTEHYAFLPCISRALEERDSLGIRRELRARQQRLSMQQSRSKLGRVCVTGANSPLGQELVGALTRTPDPSLRPDAIGVIGARDPIESHSAGAGLHFPGPGVDFLECAATDLEHYNPRTLFSINDDDLGLRRRSIFRENQVVIDLLRAQGETNEPRSKTRLVLVTLLGCGDSEDAIPSQAFDVLRPLLLELSRVEQYVRESGLPYTIVRPGALEHGDADSRAIVSESKVGFGTIHRSTLAHLLLNVAASEKAVNKTLMALDMNRLLVAAPYVRPFEVWESPPFEVFDL”, the protein production entry is “not failed”.

On to “MLRTFVLMFFTSLSFIVAYYITFSPLILAEFSHALIDFLTIAFSIIAIKFIGENEVAEGRFSYGLHRLEVVVAMINLIIIILLSLAVAYTSVTSLFKETTNDSFTLIVSSALASFLTYFASPKERNDLGKKGLYMHILSDFLGYIMGFIIGILIFISGIRELDPVGAIILVILNFALSIPLLKEAFLIFMEGSSVKIDHIMEELTKISPSVHHLHVWSICDHVKVATLHVKVSPNLTIAEADKIRGSICDFLKEKYGISHVTVQFETNVDD”, for which the protein production result was “failed”.

Consider “MLRYSLLVLLGACSYGILAIFVKLAYAEGFSLGEVIGSQYLFGWIILLAITLLFSRHRVPLKQALLLFVAGTSASFTGIFYYASLKTVPASIAIILLFQFVWVGIIIEAVATKTLPSREKVISVIFLLVGTFLSSGLLEQSAGAFDTTGIILGLLSAVTFATYIFVSGKVAVEVPSLPRGVLLMTGALTLVMIVFPPTFIFNGAISQGLWKYGLGLGTFSIVIPSIAFTIGIPKIGSGLATILGAAELPVTTIMSVFVLKEAVLSSQWFGVSLILIGIAIPQIAYAMRGRYRKHHTHKKVAA”, for which the protein production entry was “failed”.

As for “MLSAYFSGSETGLLSLNKYRLRFLSEQGNKGAKKAEKLLEKPDTLLSFILIFNNLVNISASAIATVIGMRLYGDAGVAIATGLLTFVMLVFSEIFPKTVAAMHAEKVSFFSSHILTSLLKIFYPLVWLMNIFTKSLMQIVGLKLDMQKQVISSEELRSIVSEAGEATPNEQHPQMLLSILDMETVTVDDIMVPRNEIGGINIDDDWRAIMRQLNHAAHNRVVLYKGSLDEQVLGILRVREAFRLLLEKNEFTKETLIRAADEVYFIPESTPLKTQLANFRTNKERIGLVVDEYGDIKGLVTLEDILEEIVGDFTTSTAPSIDKEVIQQSDGSMIIDGSANLRDLNKMFNWELDTEDARTFNGLILEHLEEIPDEGTICEIDGLLITILEVGDNMIKQAKVVKL”, the protein production entry was “not failed”.

“MLSELAKQFSTQIQTFFYLIMLINGLLHFIFAGAVARDAGNLYRLGQKPVLVSAPTWAFATLIGGVITATIYWLLHHSTLTRPTMREIRYDKA”: the protein production result is listed as “failed”.

Values taken from a protein production outcome set (Wang et al. 2014).
